In patent publication US20260139035A1 (NATIONAL UNIVERSITY CORPORATION KUMAMOTO UNIVERSITY, published 2026):
Changes are numbered by the printed parent chain.

B1: 1-58 antibody (antibody, V domains shown)
VH: QVQLVQSGAEVKKPGASVRVSCKASGYSFTASYMHWVRQAPGQGLEWMAIINPGDDNTSYAQKFQGRVTLTRDTSTTTVYMELRSLRSEDTAVYYCTRSTRDYVWGNYRYTPGYYLDYWGQGTLVTVSS
VL: DIRMTQSPSSLSASVGDRVTITCRASQTISNYLNWYQQKPGKAPKLLIYAASSLQSGVPSRFSGSGSGTDFTLTISSLQPEDFATYYCQQGYITPITFGQGTRLEIK
B2: 1-44 antibody (antibody, V domains shown)
VH: EVQLVESGGGVVQPGSSLRLSCAASGFTFRSHAMHWVRQAPGKGLEGVAVIWYDGSNKYYADSVKGRFTISRDNSKNTLYLQMNSLRAEDTAVYYCAREGIAVPGNGADAFDIWGQGTMVTVSS
VL: B1 VL with R3Q, T28S, S30G, Y32F, G91T, I93S, I96Y, R103K
B3: 4-66 antibody (antibody, V domains shown)
VH: EVQLVESGGGLVQPGGSLRLSCAASGIIVSRNYMTWVRQAPGKGLEWVSVIYSGGTTYYADSVKGRFTTSRDDSKNTLYLQMNSLRGDDTAVYYCARDPPHRRGSYWGQGTLVTVSS
VL: DILMTQSPSSLSASVGDRVTITCQASQDINKYLNWYQQKPGKAPKLLIYDASNLETGVPSRFSGSGSGTDFSFTISSLQPEDVATYYCQQSDNLPPTFGQGTNVEIK

How the values were obtained:
Assay in all cases: cell-based or functional assay
[1] = target: spike protein of SARS-CoV-2 prototype (614G) (SARS-CoV-2, UniProt P0DTC2 14-1273)
[2] = target: spike protein of SARS-CoV-2 Alpha strain (B.1.1.7) (SARS-CoV-2)
[3] = target: spike protein of SARS-CoV-2 Beta strain (B.1.351) (SARS-CoV-2)
[4] = target: spike protein of SARS-CoV-2 Gamma strain (P.1) (SARS-CoV-2)
[5] = target: spike protein of SARS-CoV-2 Delta strain (B.1.617.2) (SARS-CoV-2)
[6] = target: spike protein of SARS-CoV-2 Kappa strain (B.1.617.1) (SARS-CoV-2)
[7] = target: spike protein of SARS-CoV-2 Lambda strain (C.37) (SARS-CoV-2)
[8] = target: spike protein of SARS-CoV-2 Mu strain (B.1.621) (SARS-CoV-2)
[9] = target: spike protein of SARS-CoV-2 Omicron BA.1 (SARS-CoV-2)
[10] = target: spike protein of SARS-CoV-2 Omicron BA.2 (SARS-CoV-2)
[11] = target: spike protein of SARS-CoV-2 Omicron BA.3 (SARS-CoV-2)
[12] = target: spike protein of SARS-CoV-2 Omicron BA.1.1 (SARS-CoV-2)
[13] = target: spike protein of SARS-CoV-2 Omicron BA.2.12.1 (SARS-CoV-2)
[14] = target: spike protein of SARS-CoV-2 Omicron BA.4/5 (SARS-CoV-2)

| Binder | IC50, pseudovirus neutralization [1] [µg/mL] | IC50, pseudovirus neutralization [2] [µg/mL] | IC50, pseudovirus neutralization [3] [µg/mL] | IC50, pseudovirus neutralization [4] [µg/mL] | IC50, pseudovirus neutralization [5] [µg/mL] | IC50, pseudovirus neutralization [6] [µg/mL] | IC50, pseudovirus neutralization [7] [µg/mL] | IC50, pseudovirus neutralization [8] [µg/mL] | IC50, pseudovirus neutralization [9] [µg/mL] | IC50, pseudovirus neutralization [10] [µg/mL] | IC50, pseudovirus neutralization [11] [µg/mL] | IC50, pseudovirus neutralization [12] [µg/mL] | IC50, pseudovirus neutralization [13] [µg/mL] | IC50, pseudovirus neutralization [14] [µg/mL] |
| --- | --- | --- | --- | --- | --- | --- | --- | --- | --- | --- | --- | --- | --- | --- |
| B1 | < 0.087 | < 0.087 | < 0.087 | < 0.087 | < 0.087 | < 0.087 | < 0.087 | < 0.087 | < 0.087 | < 0.087 | < 0.087 | < 0.087 | < 0.087 | < 0.087 |
| B2 | < 0.47 | < 0.47 | < 0.47 | < 0.47 |  | < 0.47 | < 0.47 |  | < 0.47 | < 0.47 | < 0.47 | < 0.47 | < 0.47 |  |
| B3 | < 0.21 | < 0.21 | < 0.21 | < 0.21 | < 0.21 | < 0.21 | < 0.21 | < 0.21 | < 0.21 | < 0.21 | < 0.21 | < 0.21 | < 0.21 | < 0.21 |
